# Measured values published in patent JP2014141434A (dated 2014).
# T1: マウスROBO4 (pCI−mROBO4導入細胞) (mouse, UniProt Q8C310 28-1012)
# T1 construct: also called mouse ROBO4; mROBO4
# T1 sequence: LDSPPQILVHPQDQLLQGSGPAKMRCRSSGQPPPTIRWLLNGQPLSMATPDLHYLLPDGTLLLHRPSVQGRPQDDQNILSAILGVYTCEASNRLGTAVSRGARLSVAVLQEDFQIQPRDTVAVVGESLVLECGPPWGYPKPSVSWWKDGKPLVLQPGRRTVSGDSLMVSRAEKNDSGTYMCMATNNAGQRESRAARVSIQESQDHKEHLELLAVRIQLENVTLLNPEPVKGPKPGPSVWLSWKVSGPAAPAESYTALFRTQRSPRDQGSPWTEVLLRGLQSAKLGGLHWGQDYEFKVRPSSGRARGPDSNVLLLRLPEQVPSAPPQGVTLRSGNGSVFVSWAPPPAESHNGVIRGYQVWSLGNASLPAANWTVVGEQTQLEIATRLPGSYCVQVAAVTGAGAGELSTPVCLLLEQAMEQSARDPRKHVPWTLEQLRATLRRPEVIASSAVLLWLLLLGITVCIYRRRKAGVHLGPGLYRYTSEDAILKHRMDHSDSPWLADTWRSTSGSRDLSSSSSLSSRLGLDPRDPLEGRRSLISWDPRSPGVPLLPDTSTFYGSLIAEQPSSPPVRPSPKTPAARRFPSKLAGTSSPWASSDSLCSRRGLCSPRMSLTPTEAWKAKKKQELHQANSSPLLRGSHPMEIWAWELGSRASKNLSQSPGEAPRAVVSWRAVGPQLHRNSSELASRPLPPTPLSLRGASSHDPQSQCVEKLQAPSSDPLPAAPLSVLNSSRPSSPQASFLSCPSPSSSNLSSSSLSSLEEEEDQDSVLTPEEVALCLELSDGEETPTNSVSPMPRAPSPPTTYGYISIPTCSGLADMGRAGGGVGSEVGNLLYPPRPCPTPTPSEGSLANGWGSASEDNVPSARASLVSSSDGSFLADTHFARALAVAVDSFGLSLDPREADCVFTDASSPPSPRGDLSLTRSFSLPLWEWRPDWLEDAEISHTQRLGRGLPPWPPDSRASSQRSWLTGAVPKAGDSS
# T2: ヒトROBO3 (human, UniProt Q96MS0 21-1386)
# T2 construct: also called hROBO3; pCI−hROBO3
# T2 sequence: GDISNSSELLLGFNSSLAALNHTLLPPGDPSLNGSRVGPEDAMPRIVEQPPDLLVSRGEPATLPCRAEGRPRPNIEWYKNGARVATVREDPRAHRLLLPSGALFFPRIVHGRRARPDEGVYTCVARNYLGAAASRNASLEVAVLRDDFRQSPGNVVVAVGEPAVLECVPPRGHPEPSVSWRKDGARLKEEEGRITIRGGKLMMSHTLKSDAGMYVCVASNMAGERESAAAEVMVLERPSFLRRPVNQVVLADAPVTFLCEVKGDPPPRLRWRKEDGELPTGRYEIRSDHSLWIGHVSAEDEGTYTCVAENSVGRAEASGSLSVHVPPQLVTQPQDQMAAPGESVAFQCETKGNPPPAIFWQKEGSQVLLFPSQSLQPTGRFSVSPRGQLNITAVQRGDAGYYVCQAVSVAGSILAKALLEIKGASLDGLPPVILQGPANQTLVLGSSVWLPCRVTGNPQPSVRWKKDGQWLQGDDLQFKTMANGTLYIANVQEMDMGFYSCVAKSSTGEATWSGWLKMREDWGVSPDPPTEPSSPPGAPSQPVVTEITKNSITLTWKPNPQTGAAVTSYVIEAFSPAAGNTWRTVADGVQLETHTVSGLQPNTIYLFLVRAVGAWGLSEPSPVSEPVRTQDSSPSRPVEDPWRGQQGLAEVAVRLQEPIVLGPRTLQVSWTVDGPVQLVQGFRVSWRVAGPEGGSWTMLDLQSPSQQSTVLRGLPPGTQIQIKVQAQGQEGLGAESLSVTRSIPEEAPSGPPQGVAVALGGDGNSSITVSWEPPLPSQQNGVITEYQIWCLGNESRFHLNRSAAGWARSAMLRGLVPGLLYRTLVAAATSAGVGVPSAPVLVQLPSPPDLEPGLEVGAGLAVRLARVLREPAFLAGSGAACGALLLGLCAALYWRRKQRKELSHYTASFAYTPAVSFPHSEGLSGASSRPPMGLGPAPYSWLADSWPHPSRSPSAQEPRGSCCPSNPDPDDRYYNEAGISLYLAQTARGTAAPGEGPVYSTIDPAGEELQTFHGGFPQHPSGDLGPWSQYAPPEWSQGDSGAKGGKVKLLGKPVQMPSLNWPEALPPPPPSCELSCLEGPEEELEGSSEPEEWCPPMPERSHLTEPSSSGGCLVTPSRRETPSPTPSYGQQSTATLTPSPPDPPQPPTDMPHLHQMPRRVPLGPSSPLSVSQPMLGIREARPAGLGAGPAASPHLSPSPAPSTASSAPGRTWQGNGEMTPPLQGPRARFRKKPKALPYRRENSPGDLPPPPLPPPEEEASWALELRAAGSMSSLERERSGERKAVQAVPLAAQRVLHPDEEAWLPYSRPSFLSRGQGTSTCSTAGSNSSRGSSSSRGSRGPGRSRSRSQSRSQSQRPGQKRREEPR
# Legend:
# [1] = molecular target: T1, マウスROBO4 (pCI−mROBO4導入細胞); experiment: flow cytometry, transfected HEK293 cells
# ヒトROBO3 = molecular target: T2, ヒトROBO3; experiment: flow cytometry, transfected HEK293 cells
Binder,binding result [1],binding result (ヒトROBO3)
"ヒト化MAb1抗体 H−2143 (antibody, human IgG2, kappa, V domains shown, Humanised IgG2 / kappa; also called H-2143; hMAb1-H4 / hMAb1-L2) VH: EVQLVESGGGLVQPGGSLRLSCAASGFTFSTYAMSWVRQAPGKRLEWVATISQGGTYTYYPDSVKGRFTISRDNAKNTLYLQMNSLRAEDTAVYYCARLIYYDYLDYWGQGTLVTVSS VL: DIVMTQSPLSLPVTLGEPASISCRSSQSLENENKNLYLNWYLQKPGQSPQLLIYRVSNRFSGVPDRFSGSGSGTDFTLKISRVEAEDVGVYYCLQVTHVPWTFGPGTKVDIKR",no binding (tested: 10 μg/mL (method of 4)-3-2)),no binding (tested: 10 μg/mL (method of 4)-4-2))
"ヒト化MAb1抗体 H−2140 (antibody, human IgG2, kappa, V domains shown, Humanised IgG2 / kappa; also called H-2140; hMAb1-H4 / hMAb1-L1) VH: EVQLVESGGGLVQPGGSLRLSCAASGFTFSTYAMSWVRQAPGKRLEWVATISQGGTYTYYPDSVKGRFTISRDNAKNTLYLQMNSLRAEDTAVYYCARLIYYDYLDYWGQGTLVTVSS VL: DIVMTQSPLSLPVTLGEPASISCRSSQSLENSNGNTYLNWYLQKPGQSPQLLIYRVSNRFSGVPDRFSGSGSGTDFTLKISRVEAEDVGVYYCLQVTHVPWTFGPGTKVDIKR",no binding (tested: 10 μg/mL (method of 4)-3-2)),no binding (tested: 10 μg/mL (method of 4)-4-2))
"ヒト化MAb1抗体 H−1143 (antibody, human IgG2, kappa, V domains shown, Humanised IgG2 / kappa; also called H-1143; hMAb1-H2 / hMAb1-L2) VH: EVQLVESGGGLVQPGGSLRLSCAASGFTFSTYAMSWVRQAPGKGLEWVATISQGGTYTYYPDSVKGRFTISRDNAKNTLYLQMNSLRAEDTAVYYCARLIYYDYLDYWGQGTLVTVSS VL: DIVMTQSPLSLPVTLGEPASISCRSSQSLENENKNLYLNWYLQKPGQSPQLLIYRVSNRFSGVPDRFSGSGSGTDFTLKISRVEAEDVGVYYCLQVTHVPWTFGPGTKVDIKR",no binding (tested: 10 μg/mL (method of 4)-3-2)),no binding (tested: 10 μg/mL (method of 4)-4-2))
"抗ROBO4マウスモノクローナル抗体 MAb1 (antibody, V domains shown, Mouse IgG1 (gamma 1) / kappa from a hybridoma; The constant regions are not in the listing; also called MAb1) VH: EVQLVESGGGLVKPGGSLKLSCAASGFTFSTYAMSWVRQTPEKRLEWVATISNGGTYTYYPDSVKGRFTISRDNAENTLYLQMSSLRSEDTAMYFCARLIYYDYLDYWGHGTTLTVSS VL: DAVMTQTPLSLPVSLGDQASISCRSSQSLENSNGNTYLNWYFQKPGQSPQLLIYRVSNRFSGVLDRFSGSGSGTDFTLKISRVEAEDFGVYFCLQVTHVPWTFGGGTKLEIKR",no binding (tested: 10 μg/mL),no binding (tested: 10 μg/mL)
